Reference: patent publication US11844843 (DYNE THERAPEUTICS, dated 2023)

Key:
[1] = target: T1, recombinant cynomolgus monkey (Macaca fascicularis) TfR1 (cynomolgus monkey (Macaca fascicularis), UniProt Q5RDH6 87-760 (Pongo abelii entry), limits assumed); test: ELISA, recombinant TfR1 coated, unconjugated Fab (row 'Fab binding affinity ELISA')
T1 construct: Recombinant protein; also called cTfR1; cyTfR1
T1 chain: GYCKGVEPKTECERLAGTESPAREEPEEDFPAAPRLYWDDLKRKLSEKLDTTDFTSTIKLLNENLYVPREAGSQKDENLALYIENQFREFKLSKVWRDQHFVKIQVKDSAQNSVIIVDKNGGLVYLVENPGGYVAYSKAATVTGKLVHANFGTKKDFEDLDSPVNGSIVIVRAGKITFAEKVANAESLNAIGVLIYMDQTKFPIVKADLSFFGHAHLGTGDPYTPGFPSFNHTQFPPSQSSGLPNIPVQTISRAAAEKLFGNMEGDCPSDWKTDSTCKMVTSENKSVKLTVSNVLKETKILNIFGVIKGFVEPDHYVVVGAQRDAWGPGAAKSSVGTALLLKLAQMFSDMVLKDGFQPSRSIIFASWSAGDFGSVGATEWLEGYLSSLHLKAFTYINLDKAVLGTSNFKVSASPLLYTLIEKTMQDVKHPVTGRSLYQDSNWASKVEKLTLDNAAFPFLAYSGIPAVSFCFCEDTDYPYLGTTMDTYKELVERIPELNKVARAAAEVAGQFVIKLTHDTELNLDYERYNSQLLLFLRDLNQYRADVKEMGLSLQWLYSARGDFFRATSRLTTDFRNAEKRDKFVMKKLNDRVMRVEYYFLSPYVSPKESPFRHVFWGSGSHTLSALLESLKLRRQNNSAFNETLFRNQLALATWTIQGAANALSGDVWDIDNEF

[2] = target: T2, recombinant human TfR1 (transferrin receptor protein 1) (human, UniProt P02786 89-760); test: as above
T2 construct: Recombinant protein in SPR and ELISA; they were assigned to this molecule; also called hTfR1; huTfR1

[3] = target: T1, recombinant cynomolgus monkey (Macaca …); test: Table 14, unconjugated Fab, d9 (after 9 days at 40 C); method not named
[4] = target: T2, recombinant human TfR1 (transferrin …); test: as above
[5] = target: T1, recombinant cynomolgus monkey (Macaca …); test: Table 14, unconjugated Fab, d0; method not named (values equal ELISA row of Table 13)
[6] = target: T2, recombinant human TfR1 (transferrin …); test: as above
[7] = target: T3, recombinant mouse TfR1 (mouse, UniProt Q62351 89-763); test: ELISA on plate-coated recombinant mouse TfR1, fluorescent anti-(H+L) IgG secondary
T3 construct: Recombinant protein coated on ELISA plates
T3 sequence (Q62351 89-763 limits assumed): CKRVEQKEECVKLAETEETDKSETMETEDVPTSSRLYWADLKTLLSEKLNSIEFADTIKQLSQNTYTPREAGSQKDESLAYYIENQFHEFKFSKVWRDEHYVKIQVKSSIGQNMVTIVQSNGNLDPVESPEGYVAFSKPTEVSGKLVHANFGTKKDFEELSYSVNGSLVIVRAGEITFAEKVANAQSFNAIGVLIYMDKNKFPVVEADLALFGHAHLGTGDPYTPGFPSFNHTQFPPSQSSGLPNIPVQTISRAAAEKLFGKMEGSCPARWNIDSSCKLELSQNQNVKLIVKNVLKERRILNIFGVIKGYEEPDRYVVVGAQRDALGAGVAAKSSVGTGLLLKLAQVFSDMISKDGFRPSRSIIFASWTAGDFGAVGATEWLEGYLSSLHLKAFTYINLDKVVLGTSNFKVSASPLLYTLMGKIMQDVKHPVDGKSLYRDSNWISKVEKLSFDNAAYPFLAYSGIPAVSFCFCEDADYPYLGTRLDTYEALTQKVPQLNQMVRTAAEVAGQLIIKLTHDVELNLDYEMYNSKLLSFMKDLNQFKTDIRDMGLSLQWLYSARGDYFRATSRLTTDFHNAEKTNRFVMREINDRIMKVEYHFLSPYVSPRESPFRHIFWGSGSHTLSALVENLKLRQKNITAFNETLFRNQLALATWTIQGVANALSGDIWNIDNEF
Description: (§1) Serial dilutions of the Fab were added to plates precoated with recombinant human, cynomolgus monkey, mouse, or rat TfR1. After a short incubation, binding of the Fab was quantified by addition of a fluorescently tagged anti-(H+L) IgG secondary antibody and measurement of fluorescence intensity at 495 nm excitation and 520 nm emission.

[8] = target: T2, recombinant human TfR1 (transferrin …); test: ELISA on hTfR1, unconjugated Fab, % normalized RFUs
[9] = target: T4, recombinant rat TfR1 (rat, UniProt Q99376 89-761, limits assumed); test: ELISA on plate-coated recombinant rat TfR1, fluorescent anti-(H+L) IgG secondary
T4 construct: Recombinant protein coated on ELISA plates
T4 sequence (Q99376 89-761 limits assumed): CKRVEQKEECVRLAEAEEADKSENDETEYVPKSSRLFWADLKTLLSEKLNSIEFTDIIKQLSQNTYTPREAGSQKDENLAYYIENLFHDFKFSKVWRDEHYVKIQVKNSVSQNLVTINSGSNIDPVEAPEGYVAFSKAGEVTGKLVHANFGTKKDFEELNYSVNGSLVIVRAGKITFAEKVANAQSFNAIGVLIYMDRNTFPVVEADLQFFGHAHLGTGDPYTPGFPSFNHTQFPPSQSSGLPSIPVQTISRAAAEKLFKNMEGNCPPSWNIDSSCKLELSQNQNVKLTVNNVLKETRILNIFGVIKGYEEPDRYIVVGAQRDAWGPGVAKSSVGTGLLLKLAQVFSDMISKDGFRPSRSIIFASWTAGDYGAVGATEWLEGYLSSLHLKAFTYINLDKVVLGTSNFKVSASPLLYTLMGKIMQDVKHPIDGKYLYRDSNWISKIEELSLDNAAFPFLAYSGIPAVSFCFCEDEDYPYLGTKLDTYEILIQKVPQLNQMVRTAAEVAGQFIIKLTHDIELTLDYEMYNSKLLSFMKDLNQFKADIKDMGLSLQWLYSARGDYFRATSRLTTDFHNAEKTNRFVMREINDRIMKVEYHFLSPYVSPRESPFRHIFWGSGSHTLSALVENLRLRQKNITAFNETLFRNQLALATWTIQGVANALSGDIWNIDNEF
Description: as §1

[10] = target: T2, recombinant human TfR1 (transferrin …); test: kinetic analysis (Biacore), Table 7; TfR1 species not stated
[11] = target: T1, recombinant cynomolgus monkey (Macaca …); test: surface plasmon resonance
[12] = target: T2, recombinant human TfR1 (transferrin …); test: surface plasmon resonance
[13] = target: T2, recombinant human TfR1 (transferrin …); test: ELISA on plate-coated recombinant hTfR1, fluorescent anti-(H+L) IgG-A488 detection, % normalized RFUs
Description: To measure binding of humanized anti-TfR antibodies to TfR1, ELISAs were conducted. High binding, black, flat bottom, 96 well plates (Corning #3925) were first coated with 100 μL/well of recombinant huTfR1 at 1 μg/mL in PBS and incubated at 4° C. overnight. Wells were emptied and residual liquid was removed. Blocking was conducted by adding 200 μL of 1% BSA (w/w) in PBS to each well. Blocking was allowed to proceed for 2 hours at room temperature on a shaker at 30) rpm. After blocking, liquid was removed and wells were washed three times with 300 μL of TBST. Anti-TfR1 antibodies were then added in 0.5% BSA/TBST in triplicate in an 8 point serial dilution (dilution range 5 μg/mL-5 ng/mL). A positive control and isotype controls were also included on the ELISA plate. The plate was incubated at room temperature on an orbital shaker for 60 minutes at 300 rpm, and the plate was washed three times with 300 μL of TBST. Anti-(H+L)IgG-A488 (1:500) (Invitrogen #A11013) was diluted in 0.5% BSA in TBST, and 100 μL was added to each well. The plate was then allowed to incubate at room temperature for 60 minutes at 300 rpm on orbital shaker. The liquid was removed and the plate was washed four times with 300 μL of TBST. […] Data was recorded and analyzed for $EC50$. […]

EC50 [1]: 2.2 nM
EC50 [2]: 0.5 nM
Binding affinity [3]: 16.4 nM
Binding affinity [4]: 0.28 nM
Binding affinity [5]: 2.2 nM
Binding affinity [6]: 0.5 nM
binding result [7]: no binding (tested: 500 nM)
EC50 [8]: 2.1 nM
binding result [9]: no binding (tested: 500 nM)
Kd [10]: 0.341 nM
koff [10]: 8.61e-05 s⁻¹
kon [10]: 252000 M⁻¹ s⁻¹
Kd [11]: 5.18 nM
koff [11]: 0.000476 s⁻¹
kon [11]: 91900 M⁻¹ s⁻¹
Kd [12]: 0.768 nM
koff [12]: 0.000127 s⁻¹
kon [12]: 166000 M⁻¹ s⁻¹
EC50 [13]: 2.1 nM
B1: humanized anti-TfR Fab 3M12 VH4/Vκ3 (Fab, V domains shown)
VH: QVQLQESGPGLVKPSQTLSLTCTVTGYSITSGYYWNWIRQPPGKGLEWIGYITFDGANNYNPSLKNRVSISRDTSKNQFSLKLSSVTAEDTATYYCTRSSYDYDVLDYWGQGTTVTVSS
VL: DIQMTQSPSSLSASVGDRVTITCRASQDISNFLNWYQQKPGQPVKLLIYYTSRLHSGVPSRFSGSGSGTDFTLTISSLQPEDFATYYCQQGHTLPYTFGQGTKLEIKR
notes: also called 3M12 (VH4/Vk3); anti-TfR Fab 3M12 VH4/Vk3
